Laboratory results taken from the RNAGym collection of RNA variant scans (doi:10.1093/nar/gkz1192).

B1: CPEB3 Ribozyme (parent)
chain: UAACAGGGGGCCACAGCAGAAGCGUUCACGUCGCAGCCCCUGUCAGAUUCUGGUGAAUCUGCGAAUUCUGCUGUAUAUCUC

Variants of: B1
Experiment: self-cleavage, relative activity (ratio to wild type); higher = more cleavage; in vitro, sequencing
In short: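 After error-prone PCR and barcoding, CPEB3 ribozyme mutant libraries were transcribed with T7 RNA polymerase at 37°C for 5 hours, then given 15 min with DNase I before an EDTA stop, and they cleaved during both steps. Reverse transcription with template switching preceded Illumina sequencing. Relative activity divides a variant's cleaved/total read fraction by the unmutated ribozyme's. At least 5 reads were required per variant, and three batches were averaged.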

**Q.** With UAACAGGGGGCCACAGCAGAAGCGUUCACGACGCAGCCCCUGUCAGAUUCUGGUGAAUCUGCGAAUUCUGCCGUAUAUCUC [U31A U72C] as the variant, how does the self-cleavage read?
**A.** The self-cleavage was 0.66.

**Q.** Which self-cleavage does the source give for UAACAGGGGGCCACAGCAGAAGCGUUCACGACGCAGCCCCUGUCAGAUUCUGGUGAAUCUGCGAAUUCUGCAGUAUAUCUC [U31A U72A] here?
**A.** The self-cleavage was 0.41.

**Q.** Which self-cleavage does the source give for UAACAGGGGGCCACAGCAGAAGCGUUCACGCCGCCGCCCCUGUCAGAUUCUGGUGAAUCUGCGAAUUCUGCUGUAUAUCUC [U31C A35C] here?
**A.** The self-cleavage was 0.46.

**Q.** Which self-cleavage does the source give for UAACAGGGGGCCACAGCAGAAGCGUUCACGCCGCGGCCCCUGUCAGAUUCUGGUGAAUCUGCGAAUUCUGCUGUAUAUCUC [U31C A35G] here?
**A.** Its self-cleavage is 1.21.

**Q.** With UAACAGGGGGCCACAGCAGAAGCGUUCACGCCGCUGCCCCUGUCAGAUUCUGGUGAAUCUGCGAAUUCUGCUGUAUAUCUC [U31C A35U] as the variant, how does the self-cleavage read?
**A.** The self-cleavage was 0.32.

**Q.** For UAACAGGGGGCCACAGCAGAAGCGUUCACGACGCAGCCCCUGUCAGAUUCUGGUGAACCUGCGAAUUCUGCUGUAUAUCUC [U31A U58C], which self-cleavage is on record?
**A.** The self-cleavage was 0.36.

**Q.** Which self-cleavage does the source give for UAACAGGGGGCCACAGCAGAAGCGUUCACGACGCAGCCCCUAUCAGAUUCUGGUGAAUCUGCGAAUUCUGCUGUAUAUCUC [U31A G42A] here?
**A.** Its self-cleavage is 0.18.

**Q.** Which self-cleavage does the source give for UAACAGGGGGCCACAGCAGAAGCGUUCACGACGCAGCCCCUCUCAGAUUCUGGUGAAUCUGCGAAUUCUGCUGUAUAUCUC [U31A G42C] here?
**A.** Its self-cleavage is 0.53.

**Q.** For UAACAGGGGGCCACAGCAGAAGCGUUCACGACGCAGCCCCUGUCAGAUUCUGGUGAAUCUGCGAAUUCUGAUGUAUAUCUC [U31A C71A], which self-cleavage is on record?
**A.** The self-cleavage was 0.17.

**Q.** With UAACAGGGGGCCACAGCAGAAGCGUUCACGACGCAGCCCCUGUCAGAUUCUGGUGAAUCUGCGAAUUCUGGUGUAUAUCUC [U31A C71G] as the variant, how does the self-cleavage read?
**A.** Its self-cleavage is 0.19.

**Q.** With UAACAGGGGGCCACAGCAGAAGCGUUCACGACGCAGCCCCUGUCAGAUUCUGGUGAAUCUGCGAAUUCUGUUGUAUAUCUC [U31A C71U] as the variant, how does the self-cleavage read?
**A.** The self-cleavage was 0.29.

**Q.** For UAACAGGGGGCCACAGCAGAAGCGUUCACGACGCAGCCCCUGUCAGAUUCUGGUGAAUCUGCGAAUUCUGCUAUAUAUCUC [U31A G73A], which self-cleavage is on record?
**A.** Its self-cleavage is 1.04.

**Q.** Which self-cleavage does the source give for UAACAGGGGGCCACAGCAGAAGCGUUCACGACGCAGCCCCUGUCAGAUUCUGGUGAAUCUGCGAAUUCUGCUCUAUAUCUC [U31A G73C] here?
**A.** Its self-cleavage is 1.08.

**Q.** With UAACAGGGGGCCACAGCAGAAGCGUUCACGACGCAGCCCCUGUCAGAUUCUGGUGAAUCUGCGAAUUCAGCUGUAUAUCUC [U31A U69A] as the variant, how does the self-cleavage read?
**A.** The self-cleavage was 0.29.

**Q.** Which self-cleavage does the source give for UAACAGGGGGCCACAGCAGAAGCGUUCACGACGCAGCCCCUGUCAGAUUCUGGUGAAUCUGCGAAUUCCGCUGUAUAUCUC [U31A U69C] here?
**A.** The self-cleavage was 0.3.

**Q.** Which self-cleavage does the source give for UAACAGGGGGCCACAGCAGAAGCGUUCACGACGCAGCCCCUGUCAGAUUCUGGUGAAUCUGCGAAUUCGGCUGUAUAUCUC [U31A U69G] here?
**A.** The self-cleavage was 0.27.

**Q.** Which self-cleavage does the source give for UAACAGGGGGCCACAGCAGAAGCGUUCACGACGCAGCCCCUGUCAGAUUCUGGUGAAUCUGCGAAUUCUGCUGUAUAUUUC [U31A C79U] here?
**A.** The self-cleavage was 0.48.

**Q.** Which self-cleavage does the source give for UAACAGGGGGCCACAGCAGAAGCGUUCACGACGCAGCCCCUGUCAGAUUCUGGUGAAUCUGCGAAUUCUGCUGUAUAGCUC [U31A U78G] here?
**A.** Its self-cleavage is 0.46.

**Q.** With UAACAGGGGGCCACAGCAGAAGCGUUCACGACGCAGCCCCUGUCAGAUUCUGGUGAAUCUGCGAAUUCUGCUGUAUAACUC [U31A U78A] as the variant, how does the self-cleavage read?
**A.** The self-cleavage was 0.41.

**Q.** For UAACAGGGGGCCACAGCAGAAGCGUUCACGACGCAGCCCCUGUCAGAUUCUGGUGAAUCUGCGAAUUCUGCUGUAUACCUC [U31A U78C], which self-cleavage is on record?
**A.** The self-cleavage was 0.46.

**Q.** For UAACAGGGGGCCACAGCAGAAGCGUUCACGACGCAGCCCCCGUCAGAUUCUGGUGAAUCUGCGAAUUCUGCUGUAUAUCUC [U31A U41C], which self-cleavage is on record?
**A.** The self-cleavage was 0.51.

**Q.** Which self-cleavage does the source give for UAACAGGGGGCCACAGCAGAAGCGUUCACGACGCAGCCCCGGUCAGAUUCUGGUGAAUCUGCGAAUUCUGCUGUAUAUCUC [U31A U41G] here?
**A.** The self-cleavage was 0.29.

**Q.** Which self-cleavage does the source give for UAACAGGGGGCCACAGCAGAAGCGUUCACGACGCAGCCCCAGUCAGAUUCUGGUGAAUCUGCGAAUUCUGCUGUAUAUCUC [U31A U41A] here?
**A.** Its self-cleavage is 0.33.

**Q.** For UAACAGGGGGCCACAGCAGAAGCGUUCACGACGCAGCCCCUGUCAGAUUCUGCUGAAUCUGCGAAUUCUGCUGUAUAUCUC [U31A G53C], which self-cleavage is on record?
**A.** Its self-cleavage is 0.51.

**Q.** Which self-cleavage does the source give for UAACAGGGGGCCACAGCAGAAGCGUUCACGACGCAGCCCCUGUCAGAUUCUGAUGAAUCUGCGAAUUCUGCUGUAUAUCUC [U31A G53A] here?
**A.** Its self-cleavage is 0.53.

**Q.** With UAACAGGGGGCCACAGCAGAAGCGUUCACGACGCAGCCCCUGUCAGAUUCUGGUGAAUCCGCGAAUUCUGCUGUAUAUCUC [U31A U60C] as the variant, how does the self-cleavage read?
**A.** The self-cleavage was 0.25.

**Q.** Which self-cleavage does the source give for UAACAGGGGGCCACAGCAGAAGCGUUCACGACGCAGCCCCUGUCAGAUUCUGGUGAAUCGGCGAAUUCUGCUGUAUAUCUC [U31A U60G] here?
**A.** Its self-cleavage is 0.2.

**Q.** With UAACAGGGGGCCACAGCAGAAGCGUUCACGACGCAGCCCCUGUCAGAUUCUGGUGAAUCAGCGAAUUCUGCUGUAUAUCUC [U31A U60A] as the variant, how does the self-cleavage read?
**A.** Its self-cleavage is 0.32.

**Q.** For UAACAGGGGGCCACAGCAGAAGCGUUCACGACGCAGCCCCUGUCAGAUUCUGGUGAAUCUGCAAAUUCUGCUGUAUAUCUC [U31A G63A], which self-cleavage is on record?
**A.** Its self-cleavage is 0.39.

**Q.** With UAACAGGGGGCCACAGCAGAAGCGUUCACGACGCAGCCCCUGUCAGAUUCUGGUGAAUCUGCGAACUCUGCUGUAUAUCUC [U31A U66C] as the variant, how does the self-cleavage read?
**A.** Its self-cleavage is 0.26.

**Q.** With UAACAGGGGGCCACAGCAGAAGCGUUCACGACGCAGCCCCUGUCAGAUUCUGGUGAAUCUGCGAAUUCUGCUGUAUAUCUU [U31A C81U] as the variant, how does the self-cleavage read?
**A.** The self-cleavage was 0.58.

**Q.** With UAACAGGGGGCCACAGCAGAAGCGUUCACGACGCAGCCCCUGUCAGAUUCUAGUGAAUCUGCGAAUUCUGCUGUAUAUCUC [U31A G52A] as the variant, how does the self-cleavage read?
**A.** The self-cleavage was 0.69.

**Q.** Which self-cleavage does the source give for UAACAGGGGGCCACAGCAGAAGCGUUCACGACGCAGCCCCUGUCAGAUUCUCGUGAAUCUGCGAAUUCUGCUGUAUAUCUC [U31A G52C] here?
**A.** Its self-cleavage is 0.5.

**Q.** For UAACAGGGGGCCACAGCAGAAGCGUUCACGACGCAGCCCCUGUCAGAUUCUGGUGAAUCUGCGAAUUCUGCUGUACAUCUC [U31A U76C], which self-cleavage is on record?
**A.** The self-cleavage was 0.48.
